Test [1] addresses Hyperglycosylated Zika exodomain (HX), insect (Tni) cell expressed (Zika virus). The experiment in a line: ELISA. In general terms: An ELISA detects its analyte on a solid surface through an enzyme-linked reagent.
Test [2] deals with Hyperglycosylated dengue-1 exodomain (HX), insect (Tni) cell expressed (dengue virus serotype 1) (UniProt P27909). As to the kind of experiment: ELISA.
Test [3] has as its target Hyperglycosylated dengue-2 exodomain (HX), insect (Tni) cell expressed (dengue virus serotype 2) (UniProt P18356). The experiment in a line: ELISA.
Test [4] concerns the target Hyperglycosylated dengue-3 exodomain (HX), insect (Tni) cell expressed (dengue virus serotype 3) (UniProt Q6YMS4). As to the kind of experiment: ELISA.
In test [5] the target is Hyperglycosylated dengue-4 exodomain (HX), insect (Tni) cell expressed (dengue virus serotype 4) (UniProt P09866). As to the kind of experiment: ELISA.
The target in test [6] is Hyperglycosylated exodomain D1 (from pCRO21), HEK293-expressed (dengue virus serotype 1) (UniProt P27909). As to the kind of experiment: ELISA.
For test [7], the target named is Hyperglycosylated exodomain D2 (from pCRO22), HEK293-expressed (dengue virus serotype 2) (UniProt P18356). As to the kind of experiment: ELISA.
Test [8] has as its target Hyperglycosylated exodomain D3 (from pCRO23), HEK293-expressed (dengue virus serotype 3) (UniProt Q6YMS4). As to the kind of experiment: ELISA.
Test [9] deals with Hyperglycosylated exodomain D4 (from pCRO24), HEK293-expressed (dengue virus serotype 4) (UniProt P09866). The experiment in a line: ELISA.
Test [10] deals with Hyperglycosylated exodomain Zika (from pCRO28), HEK293-expressed (Zika virus). As to the kind of experiment: ELISA.
The target of test [11] is wild-type insect cell expressed Zika exodomain antigen (Zika virus). The experiment in a line: ELISA.
In test [12] the target is VLPs. The experiment in a line: competition ELISA, 4G2 in solution phase at 10 micrograms per ml.

With “fusion-loop antibody 4G2 (The Native Antigen Company AbFLAVENV-4G2)”, the absorbance in test [1], in test [2], in test [3], in test [4], in test [5] and in [6] was 0.1 absorbance each time. The absorbance in test [7] was 0.1 absorbance; in test [8], 0.1 absorbance; in [9], 0.1 absorbance; in test [10] it was 0.1 absorbance; in test [11] it was 0.9 absorbance. Moreover, the % inhibition in test [12] turned out to be 80%.
“Aalto Bioreagents anti-Zika antibody AZ1176-0302156-Lot3889”: the absorbance was 2 absorbance in [1]; 0.2 absorbance in [2]; 0.1 absorbance in test [3]; 0.3 absorbance in test [4]; 0.1 absorbance in test [5]; 0.1 absorbance in [6]. The absorbance in test [7] was 0.1 absorbance; in test [8], 0.1 absorbance; in [9], 0.1 absorbance; in test [10], 3.1 absorbance; in test [11], 1 absorbance.
Consider ZKA64 (antibody), for which the absorbance in test [1] was 0.7 absorbance; in [2], 0.2 absorbance; in test [3], 0.2 absorbance; in test [4] it was 0.2 absorbance; in [5] it was 0.1 absorbance; in test [6], 0.1 absorbance. Further, the absorbance in test [7] stood at 0.1 absorbance; in test [8] it was 0.1 absorbance; in [9], 0.1 absorbance; in test [10], 0.9 absorbance; in test [11], 0.8 absorbance.
In the case of ZKA78 (antibody), the absorbance in test [1], in test [2], in [3], in test [4], in [5] and in test [6] was 0 absorbance each time. Further, the absorbance in [7] was determined as 0 absorbance; in test [8] it was 0 absorbance; in test [9], 0 absorbance; in test [10] it was 0 absorbance; in test [11], 1.4 absorbance.
Regarding “ZV67 anti-Zika neutralizing antibody (The Native Antigen Company MAB12125)”, the absorbance in [1] came out at 1.5 absorbance; in test [2], 0.1 absorbance; in test [3] it was 0.1 absorbance; in [4], 0.1 absorbance; in test [5] it was 0.1 absorbance; in test [6] it was 0.1 absorbance. The absorbance in test [7] worked out at 0 absorbance; in test [8] it was 0 absorbance; in [9], 0 absorbance; in test [10], 1.1 absorbance; in [11], 1.2 absorbance.
As for “ZV48 anti-Zika neutralizing antibody (The Native Antigen Company MAB12124)”, the absorbance in [1] is 1.1 absorbance; in [2], 0 absorbance; in [3], 0 absorbance; in test [4] it was 0 absorbance; in test [5] it was 0 absorbance; in [6] it was 0 absorbance. Further, the absorbance in test [7] came out at 0 absorbance; in test [8], 0 absorbance; in [9], 0 absorbance; in [10] it was 1.2 absorbance; in test [11] it was 1.1 absorbance.

By % inhibition is commonly meant the relative decrease from the control value, in per cent. Lower therefore signals little suppression.

These data come from patent publication US20200215180A1.
